Assay results taken from patent US20060093670A1, “Sustained-release composition process for producing the same and preparation thereof” (priority 2002, published 2006).

How the values were obtained:
[1] = prior-art two-component apatite particles; cited from earlier work
[2] = IFN α blood level after subcutaneous administration of IFN α-HAp preparation (Example 2); assay type: in vivo, ddy mouse; settings: IFN α with HSA, chondroitin sulfate and Zn(CH3COO)2 in HAp sintered at 180° C., 4 hours and 1 to 10 days, ELISA, FIG. 2
Description: 0.854 ml of 225 μg/ml IFN α (interferon α, Sumitomo Pharmaceuticals) and 1.2 ml of 20 mg/ml HSA were mixed to prepare a protein-mixed solution. 0.856 ml of the protein-mixed solution was mixed with 200 mg of HAp sintered at 180° C., and the mixture was stirred to entrap a protein in HAp. 0.05 ml of 20 mg/ml chondroitin sulfate (CS, from Wako), 0.074 ml of H2O, and 0.02 ml of 1 M Zn(CH3COO)2 were sequentially added thereto. The mixture was centrifuged at 15,000 rpm for five minutes. 2 ml of a 20 mM Zn(CH3COO)2/5% mannitol solution was added to the deposit to prepare a sample.
As a control, 0.644 ml of H2O and 0.5 ml of 20% mannitol were added to 0.856 ml of an IFN α-containing protein-mixed solution to prepare an IFN α (free) solution.
(§1) 0.5 ml of the sample prepared above was subcutaneously administered to an eight-week-old male ddy mouse (weight: 33 to 40 g, SLC, Japan). Four hours and one to ten days after the administration, blood was collected from the orbit of the mouse. The IFN α concentration in this blood was determined using an ELISA kit (Biosource).

[3] = Effect of Zn concentration on sustained release of IFN-HAp preparation (IFN α blood level, Example 3); assay type: in vivo, ddy mouse; settings: IFN α/HSA/CS in HAp, freeze-dried, subcutaneous, 4 hours and 1 to 7 days, FIG. 3
Description: 0.06 ml of 0.937 mg/ml IFN α, 0.3 ml of 20 mg/ml HSA, 0.03 ml of 20 mg/ml CS, and 1.22 ml of H2O were added to prepare a solution. 200 mg of HAp sintered at 180° C. was added on this solution. A protein was entrapped in HAp by stirring, and then 10 ml of H2O was added. The mixture was lightly stirred and centrifuged at 3,000 rpm for five minutes.
The deposit was freeze-dried and divided in two. 1 ml of a 20 mM Zn(CH3COO)2/5% mannitol solution was added to one division, while 1 ml of a 5 mM Zn(CH3COO)2/5% mannitol solution was added to the other division.
As a control, 0.015 ml of 0.937 mg/ml IFN α, 0.075 ml of 20 mg/ml HSA, 0.66 ml of H2O and 0.25 ml of 20% mannitol were added to prepare an IFN α (free) solution.
as §1, with “0.7” for “0.5”, “a seven-week-old” for “an eight-week-old”, “(weight: 31 to” for “(weight:”, “33” for “33 to 40”, “seven” for “ten”

[4] = Entrapment of IFN on HAP (IFN in the washed solution); assay type: physicochemical; settings: 30 μg IFN on 45 mg HAP, 20 mM zinc acetate, washed with 1.5 ml water
Description: (§2) 45 mg of porous hydroxyapatite (HAP) was accurately weighed. 30 μg of IFN from a 2.4 mg/ml interferon a (IFN) solution was added thereto, and the mixture was allowed to stand for 10 minutes. Then, 1 ml of a 20 mM/1 ml zinc acetate solution was added thereto, and the mixture was shaken for 30 minutes. This dispersion was washed by addition of 1.5 ml of water. When IFN in the washed solution was quantitatively determined, IFN was not detected. Specifically, all IFN was confirmed to be entrapped on HAP. In this manner, a microparticle preparation on which IFN as a protein was entrapped could be obtained without using an organic solvent. After the washing, 20 ml of a PBS solution containing FCS in an amount of 20% was added to the resulting powder, and the mixture was shaken at 37° C. for 16 hours. IFN eluted in the supernatant liquid was quantitatively determined to calculate the percent elution.

[5] = Percent elution of IFN entrapped onto HAP in PBS containing 20% FCS; assay type: physicochemical; settings: 37° C., 16 hours
Description: as §2, with “Then, 1 ml of a 20 mM/1 ml zinc acetate solution was added thereto, and the mixture was shaken for 30 minutes.” left out

[6] = PC-BDNF blood level after subcutaneous administration of PC-BDNF-HAp preparation; assay type: in vivo, ddy mouse; settings: PC-BDNF in HAp sintered at 180° C. with HSA and 5 mM Zn(CH3COO)2/5% mannitol, 2 hours to 4 days, ELISA, FIG. 1
Description: 66 μl of a 4.54 mg/ml PC-BDNF (lecithinized BDNF) solution was added to 20 mg of porous hydroxyapatite microparticles (HAp) sintered at 180° C., and the mixture was stirred using a vortex mixer for one minute. 434 μl of a 0.1% HSA solution was added thereto, and the mixture was stirred again for one minute. The mixture was allowed to stand for three minutes, and then centrifuged at 1,000 rpm for three minutes to remove the supernatant liquid. 500 μl of a 5 mM Zn(CH3COO)2/5% mannitol solution was added to the deposit, and the mixture was stirred to prepare a sample. As a control, a sample in which 66 μl of a 4.54 mg/ml PC-BDNF solution was mixed with 434 μl of 5% mannitol was also prepared. 500 μl of each sample was subcutaneously administered to a six-week-old male ddy mouse. Two hours, seven hours, 17 hours, one day, two days, and four days after the administration, blood was collected from the orbit to determine the PC-BDNF blood level using an ELISA kit (Promega).

[7] = Adsorption of G-CSF on hydroxyapatite preliminarily treated with zinc acetate; assay type: physicochemical; settings: for Amount of adsorbed G-CSF / Amount of free G-CSF: 10 mg hydroxyapatite bound with zinc
Description: Then, the following procedure was conducted to attempt adsorption of zinc on hydroxyapatite particles and adsorption of G-CSF on the particles. 10 mg of hydroxyapatite was suspended in 200 μl of zinc acetate (5 mg/ml). The suspension was allowed to stand for 10 minutes at room temperature, and then centrifuged at 10,000 rpm for 10 minutes to discard the supernatant liquid. The precipitate was suspended in 500 μl of purified water. The suspension was allowed to stand for 10 minutes at room temperature, and then centrifuged at 10,000 rpm for 10 minutes to discard the supernatant liquid. After the sediment was suspended and centrifuged again, the supernatant liquid was discarded. This precipitate was suspended in 0.5 ml of a 200 μg/ml or 1,000 μg/ml G-CSF solution. The suspension was allowed to stand for 10 minutes, and then centrifuged at 10,000 rpm for 10 minutes. The amount of G-CSF in the supernatant liquid was determined by an ELISA method. Further, G-CSF entrapped in hydroxyapatite was eluted from the precipitate using 0.1 M EDTA and a 1% HAS solution, and the eluate was centrifuged. Then, the G-CSF concentration in the supernatant liquid was determined by an ELISA method to determine the amount of G-CSF adsorbed on hydroxyapatite.

[8] = In vitro release test of G-CSF from HAp in PBS, embolized versus not embolized; assay type: physicochemical; settings: embolized (HSA, CaCl2, then Na2CO3) versus not embolized, room temperature, ELISA, FIG. 4
Description: 100 μl of a preliminarily mixed solution of G-CSF (3 μg/ml), HSA (30 μg/ml), and CaCl2 (280 mg/ml) was added to 50 mg of HAp sintered at 180° C. The mixture was stirred using a vortex mixer for three minutes, allowed to stand for five minutes, and freeze-dried. 100 μl of a 220 mg/ml Na2CO3 solution was added to the resulting particles, and the mixture was stirred using a vortex mixer for three minutes. After further addition of 100 μl of water, the mixture was lightly stirred. A part of the mixture was collected for ELISA determination. The remaining part was centrifuged at 1,000 rpm for three minutes to collect the supernatant liquid. 2 ml of PBS was added to the deposit, and the mixture was lightly shaken at room temperature. After 0 hour and 0.5 hour, respectively, the supernatant liquid was collected. Further, 10 ml of PBS was added to the deposit, and the mixture was shaken at room temperature. After 0 hour and 0.5 hour, respectively, the supernatant liquid was collected. The final deposit and the supernatant liquids obtained on the way were subjected to determination using an ELISA kit (IBL). The final deposit was dissolved in 1% BSA/Tris-HCl (pH 5) and used for the ELISA determination. The results are shown in FIG. 4-A. 200 μl of a 1.5 μg/ml G-CSF solution was added to 50 mg of HAp to fill the pores, and 2 ml of PBS was added further. The same release test was conducted.

[9] = Adsorption of G-CSF on hydroxyapatite particles without zinc; assay type: physicochemical; settings: 40 mg hydroxyapatite particles, 100 μl of G-CSF solution (100 μg/ml), no zinc; eluted with pH 4 acetic acid buffer; ELISA
Description: 40 mg of hydroxyapatite particles were immersed in 100 μl of a G-CSF solution (100 μg/ml) for 10 minutes. Then, 900 μl of purified water was added, and the mixture was stirred and centrifuged. Then, the supernatant liquid was discarded. Purified water was added to the precipitate again, and the mixture was stirred and centrifuged to remove the excessive G-CSF.
The precipitate was suspended in a pH 4 acetic acid buffer to elute G-CSF. After centrifugation, the amount of G-CSF in the supernatant liquid was determined by ELISA to determine the amount of G-CSF adsorbed. Almost no adsorption was observed (0.1 μg or less).

hGH: human growth hormone, on prior-art apatite particles
Amount of hGH adsorbed on the apatite particles (entrapped amount) [1]: ≤ 1%

IFN α
IFN α concentration in blood, sustained-release effect [2]: excellent sustained-release effect
IFN α blood level ([3]; zinc 5 mM): sufficiently increased, but was reduced comparatively rapidly
IFN α blood level ([3]; zinc 20 mM): not sufficiently increased, but IFN α was released slowly for a long time
IFN in the washed solution [4]: not detected
Eluted IFN (%) ([5]; Zinc acetate 0 mM): 92%
Eluted IFN (%) ([5]; Zinc acetate 20 mM): 87%

B1: PC-BDNF: lecithinized BDNF; tested entrapped in HAp with HSA and zinc acetate (PC-BDNF-HAp preparation) (conjugate, UniProt P23560 19-247, looked up)
Neurotrophic factor BDNF …: APMKEANIRGQGGLAYPGVRTHGTLESVNGPKAGSRGLTSLADTFEHVIEELLDEDQKVRPNEENNKDADLYTSRVMLSSQVPLEPPLLFLLEEYKNYLDAANMSMRVRRHSDPARRGELSVCDSISEWVTAADKKTAVDMSGGTVTVLEKVPVSKGQLKQYFYETKCNPMGYTKEGCRGIDKRHWNSQCRTTQSYVRALTMDSKKRIGWRFIRIDTSCVCTLTIKRGR
modifications: lecithinized; entrapped in hydroxyapatite
PC-BDNF blood level, sustained-release effect [6]: excellent sustained-release effect

B2: G-CSF: G-CSF protein loaded into or adsorbed on hydroxyapatite microparticles (protein, UniProt P09919 31-207, looked up)
Granulocyte …: TPLGPASSLPQSFLLKCLEQVRKIQGDGAALQEKLVSECATYKLCHPEELVLLGHSLGIPWAPLSSCPSQALQLAGCLSQLHSGLFLYQGLLQALEGISPELGPTLDTLQLDVADFATTIWQQMEELGMAPALQPTQGAMPAFASAFQRRAGGVLVASHLQSFLEVSYRVLRHLAQP
modifications: adsorbed on hydroxyapatite microparticles
Amount of adsorbed G-CSF ([7]; total amount of G-CSF 100 μg): 86.4 µg
Amount of free G-CSF ([7]; total amount of G-CSF 100 μg): 0.4 µg
Amount of adsorbed G-CSF ([7]; total amount of G-CSF 500 μg): 400.0 µg
Amount of free G-CSF ([7]; total amount of G-CSF 500 μg): 90.0 µg
Maximum amount of G-CSF adsorbed ([7]; on 10 mg of hydroxyapatite): 400 µg
Release of G-CSF from HAp [8]: release was remarkably suppressed
Amount of G-CSF adsorbed [9]: ≤ 0.1 µg
